Measured values: the DeepSol protein solubility set

Test: soluble on expression in E. coli; label from the status in PepcDB or PDB records

| Sequence | soluble on expression in E. coli |
| --- | --- |
| SYHTGTAYGMIDLPRILRSITTFESFGKVKIGILKKGIQAIESLLVARHQMYSAVYMHPTVRIADTMIKRAVIKEIQEKNLDIKDLANMDDIALVSFLRISENYLMERIDRRNLYKNLITYSYFDLNPIEKWIFVNLDEKQILSLESRFYEEFGWDIFIDIYPIPKMEEHNVYIISDEGVKRLDEVSPLAQSLK | not soluble |
| TDKPRHRFFDAETEALYARLARALPGYDFALQGWNRDEDTFIVAAYNDRTPGSRYLYDARRDSLHKLADINPAIPEADMAPVRPVSYQSRDGLTIHGYLTLPAGRAPRNLACIVNPHGGPWARDGWGYNPEVQFLANRGFCVLQMNFRGSTGYGRKFWEAGFGQWGLKMQDDITDGVQWLIDQGIADPRRIGIYGGSYGGYATLAGVAFTPDLYAAAVDYVGVSNLFTFMNTIPPYWKPLLAKMQDMVGDPVRDKARLEATSPALHVDRIKTPLFIAQGAKDPRVNKAESDQVVQALRQRGVEVEYMVKDNEGHGFHNDENKFEFYAAMEKFFTEHLK | not soluble |
| TDYAVTALRAWTRPLNYDIEHVYRITLATVQKDKDGKWKERSADQGKTMMQTLDLIAAYPGVEAACLQQWGGHYSSSSSNSSFQLDTVSLINVEDRMVSPDYFRVFRVYGADGSSPEEMAERFGKLHMNDLQRDYYLSRNALDYVEKVNGEGRESDRRYIGMSDSINYNMVSVVDGVQSEKSIRYNQTLRGLIPDQPKNEAESTGYISLKPITEEYISQNELISYSVYLRVSPEADTPDFKEQFVKRMKAVTKDDTYPVLTMNAVSEDRAGILADPVRQINNH | not soluble |
| TEKFTWNTNVSYSTNSNKVVALSSEKFSMDQDYFYTGYTGEPIQTTTHIVQVGKPIGTFYGLKSVDITDDGLWLVENKKGEHVLAEETDATDWQVLGNGIPKHYLNWNNTFNFFNFDLSINMRGAFGFQILNYQRMYYENAKPEIQYNRLNSAFDKVYGKTQLKDDQRYVSYYVEDGDYWKIDNVTLGYTFKLSKQHIIKNLRIYASVLNLATITGYKGMDPEVPLSSNTYGLLDAGTDNRDKYPTNRTYTFGVNLTF | not soluble |
| TGKFKWDLGGNISFVKNKLLSLIEGSEMYVVPSSGSNLLGGSMHALINGEPISTFYMLKMEGIYQRDDEVPAKLYAKGVRAGDVRYFDYNEDGDITDADRVNVGKAIPDFYGGITSNFSYKGFDLSLFGQFSVGGKVMAAWRGVNGSEGTDHLGLALSNVKVGDRGESVEQFFNISKEVANGYWRGEGTSNSIPRPVRIGVHTGYDYDYNVQTSTRYLEDASYFKLKTVTLGYTLPESITKKIHVNSLRFYVSADNLLAFTKYSGYDPETSFSGSPGDSNYGVDFGLQPVLRTFIFGLNLNF | not soluble |
| TGPQGPPGPAGPKGAKGETGPQGPPGPAGPKGAKGDSGVPLSYEFTQKVESSNGTAVFGLLSNGFVEVRITGSYSSDVFNIPYNYRPLKAGTQMALFSTSGVGVAKVGEDKITIQGYSRNAQCSGTVLYPHREF | not soluble |
| TGTAIYFIHGTADQPAAFKRVAERLIDTGLPDEICSLNLLAFDQRYQGKSIKFFAEQLKNKIKVNQHQRVILMAHSRGGLVASYFAEFLAKEASIDVPLVITMGTPFNGSYLAVKPLSWFSDSIREMEINSEFLAQLKQEIVEHSVSAYHFFIAKEDAIVPGESGYIKDYVDKYPESLHILDRHGHLSIMSSHRLVSHISSLLHDYIDDY | not soluble |
| TKDWKWKLSFNATTYKNKITSLPAEEMWSGNKKWVKGGSLYDFYLVEWAGVNPENGNPTWYRYNTNGEKITTEDYSSTTPDDKVKCGNSLPDWTGGLQSDLSFKDFTLSFLFSYSIGGKIYNGDKVSLMSQGPTGTGWSVDMLDRWTPENPYTDVPRLTTSPKSSWTNSSNRFLVDRSYLRLKNITFSYNLPKSLLNTLTLKDASIFFQAENMLTLAKQQGLDPEQTFGGSTYYRYPAMKTISFGINVKL | not soluble |
| TLPFRIGHGFDLHRLEPGYPLIIGGIVIPHDRGCEAHSDGDVLLHCVVDAILGALGLPDIGQIFPDSDPKWKGAASSVFIKEAVRLMDEAGYEIGNLDATLILQRPKISPHKETIRSNLSKLLGADPSVVNLKAKTHEKVDSLGENRSIAAHTVILLMKK | soluble |
| TLSRDDAAQVAKVLSEALPYIRRFVGKTLVIKYGGNAMESEELKAGFARDVVLMKAVGINPVVVHGGGPQIGDLLKRLSIESHFIDGMRVTDAATMDVVEMVLGGQVNKDIVNLINRHGGSAIGLTGKDAELIRAKKLTVTRQTPEMTKPEIIDIGHVGEVTGVNVGLLNMLVKGDFIPVIAPIGVGSNGESYNINADLVAGKVAEALKAEKLMLLTNIAGLMDKQGQVLTGLSTEQVNELIADGTIYGGMLPKIRCALEAVQGGVTSAHIIDGRVPNAVLLEIFTDSGVGTLISNRKRH | soluble |
| TPIINDPETVKLFLLTELQHEEREVFMVLFLDNQHRLIKKERLFLGTIYVSAVYPREIIKEALYCNAAALILAHNHPSGITEPSYSDQLITKKIQDAAELMEIRVLDHLIVGKSDCYSFAENCLL | not soluble |
| TRNVTWNIGFNATHYRNKISRLAESKKTDIIDGHAGYVNGLYYYGEGLPMYTNYVQKYAGVSEEGKPQWYYTDKQTGEMKTTTTYSQADLYLCGDAVPDLYGGINTSLSFYGFDFSTQINYSIGGQAYDYGYQALMSPPTSTHLGYNVHKDIYKAWSPENTQSDIPQWQFNDLYSVKTSDRFLTNASSISIQNIQLGYTFSKKTLRSLYLTNLRIYVACDNVYYWSKRKGFDSRVTWNGNKDSSGEYSAVRAFSAGLSLQF | not soluble |
| TSIMAVTFKDGVILGADSRTTTGAYIANRVTDKLTRVHDKIWCCRSGSAADTQAIADIVQYHLELYTSQYGTPSTETAASVFKELCYENKDNLTAGIIVAGYDDKNKGEVYTIPLGGSVHKLPYAIAGSGSTFIYGYCDKNFRENMSKEETVDFIKHSLSQAIKWDGSSGGVIRMVVLTAAGVERLIFYPDEYEQL | soluble |
| TTDPILFMLSLVQQCRLSPKLAYGVIAGFRFLPLLKDEVQLIQQAHKIRGGAAESGIINKISALKRYTIPLLASAIRKAERTALAMESKGFTGSRNRTYYRTLSVNRRD | not soluble |
| TTSMIQISDAVGYLIRPLKIFKLPVDDIVLTLSIALRFIPTMLQEISTISDAQKARGSSLNSRSIAKKIKAIVPILMPLFIASVRRAEDLATAMIMRGYSDGKNRTKFRIMK | not soluble |
| TTSRQIGSDDNTSLGTNISIDGMPLSNDAMRTQLYGITGVDRSDLYVADRTVTRRTGMNAGIDLRTISTDHIETIEIERGISSVGEGNLSSGAIRIRTKQGSAPLQMRVKADPLSKLAYVGKGFKVSKRGASIHTGIDFLHNKPDVREVLDSYKRSTLHARYSDQLNYGDMIVDLGIGLMQTFSIQDSKSDQLVNEYEETYNSKYLRSSLSFDAKVRFSGSWLNSIDWLLSADYTSDLLKRKKYYISTSGPKSMPVATESGEHEGVFLPSAYYAYYEIDNQPLYFFSRFKANTDINFTERHHHHLLYGLEARSSKNIGRGVVADPTRPPYPGNNSYIRPRPNYNIPASVYAAFFVEDRASVEWGANRLGIQAGLRATHLFNLPSSYALSRKMLIEPRIKANWQYRAEHLSINLRAGYGMENKLPTLDHLYPDKIYRDFMVLNAYMQNPELDHLITYTYIHNPENPAIRENRNVKKEIGIDMTYKRFDFSLTLFHEESRRGFEYFDSYLPIAFDRYTKLIAPLPPGHKPQKEDYIQEHHKDFFVIPTVQNSAKVVKRGIEFRLRTPYLKAINTQVEVNGAYYHTLYASGIPIMFRPIVSEYEQALYPYVGYYEGSLHKHYQRFNTNVWVNTHFPRYKLIFTSFFQIIWHDASYRGHEESEFPYAYMDLDGVVHPTSKAAILEAAATNDILKYLSRERTELYYRATYKPISLRINFKATKEFSDRMRLAFFVDNIIDINPKYKQANNTTERDWSIPYFGIETTFTL | not soluble |
| TVHKQDGKVLEIELSSLKEALSFVSLIDGYYRLTADAHHYLCKEVAPPAVLENIHSNCHGPISMDFAISKLKKAGNQTGLYVLRCSPKDFNKYFLTFAVERENVIEYKHCLITKNENGEYNLSGTKRNFSNLKDLLNCYQMETVRSDSIIFQFTKCCPPKPKDKSNLLVFRTNGISDVQISPTLQRHNNVNQMVFHKIRNEDLIFNESLGQGTFTKIFKGVRREVGDYGQLHKTEVLLKVLDKAHRNYSESFFEAASMMSQLSHKHLVLNYGVCVCGEENILVQEFVKFGSLDTYLKKNKNSINILWKLGVAKQLAWAMHFLEEKSLIHGNVCAKNILLIREEDRRTGNPPFIKLSDPGISITVLPKDILQERIPWVPPECIENPKNLNLATDKWSFGTTLWEICSGGDKPLSALDSQRKLQFYEDKHQLPAPKWTELANLINNCMDYEPDFRPAFRAVIRDLNSLFTPDYELLTENDMLPNMRIGALGFSGAFEDRDPTQFEERHLKFLQQLGKGNFGSVEMCRYDPLQDNTGEVVAVKKLQHSTEEHLRDFEREIEILKSLQHDNIVKYKGVCYSAGRRNLRLIMEYLPYGSLRDYLQKHKERIDHKKLLQYTSQICKGMEYLGTKRYIHRDLATRNILVENENRVKIGDFGLTKVLPQDKEYYKVKEPGESPIFWYAPESLTESKFSVASDVWSFGVVLYELFTYIEKSKSPPVEFMRMIGNDKQGQMIVFHLIELLKSNGRLPRPEGCPDEIYVIMTECWNNNVSQRPSFRDLSLRVDQIRDSIAA | not soluble |
| VAASWREQFIRAEQTHWDAVTETASETYWEGGVLSDVTALAPDPATLFISNSMPIRDMDRFGGPRDADLTVLGNRGASGIDGITSTALGAGSATSDPLVLVTGDLAYYHDMNGLLALGRCAVDATVVLLNNDGGGIFHMLPIEDHPTFEDQFRTPHGLDFEPTEALYSLQFERVADRRQFRERFAESVQTDGTQVIEVRFDAGDSHAVRDQLTE | not soluble |
| VAFLCQLFGVYRSSYQAWHHRVKKPDTERIRLKSLVREAFNEGKGSAGARTIAAMVTAKGIPLGRWRAGKLMAELGLVSRQQPKHRYSHQEQEHLDIPNDLDRQFTVTEPNQVWCGDVTYIWTGKCWAYLAVVLDLFARKPIGWAMSFSADSELTKRALEMAFESRRKPQGVMFHRDQGSHYTRKAFRRLLWRYGIKQSLSRRGNCWDNSPMERFFRSLKSEWVPEEGYSDFRKAFRSITNYIQGEPRQSRDFPYVFITFLYPASIRRANGAGAG | soluble |
| VAITDNRGVITHVNEKFCDISQYEYYELVGTTHKIINSGFHPRSFFKQMWKTIAQGNIWKGEICNRTKQGKLYWVDTTIVPLKDNDGLLKNYISIRTDITQ | not soluble |
| VASKAIFYHAGCPVCVSAEQAVANAIDPSKYTVEIVHLGTDKARIAEAEKAGVKSVPALVIDGAAFHINFGAGIDDLKGS | soluble |
| VDFHGYARSGIGWTGSGGEQQCFQTTGAQSKYRLGNECETYAELKLGQEVWKEGDKSFYFDTNVAYSVAQQNDWEATDPAFREANVQGKNLIEWLPGSTIWAGKRFYQRHDVHMIDFYYWDISGPGAGLENIDVGFGKLSLAATRSSEAGGSSSFASNNIYDYTNETANDVFDVRLAQMEINPGGTLELGVDYGRANLRDNYRLVDGASKDGWLFTAEHTQSVLKGFNKFVVQYATDSMTSQGKGLSQGSGVAFDNEKFAYNINNNGHMLRILDHGAISMGDNWDMMYVGMYQDINWDNDNGTKWWTVGIRPMYKWTPIMSTVMEIGYDNVESQRTGDKNNQYKITLAQQWQAGDSIWSRPAIRVFATYAKWDEKWGYDYTGNADNNANFGKAVPADFNGGSFGRGDSDEWTFGAQMEIWW | soluble |
